Assay [1] deals with T1, EZH2 SRM-SANT1 (residues 141–251) (human, UniProt Q15910 141-251).
T1 construct: Enhancer of Zeste Homologue 2 (EZH2), human, residues 141-251: stimulation response motif (SRM), linker and SANT1 domain; cDNA from OpenBiosystems; Uniformly 15N-enriched for the NMR titrations; untagged in the pull-down; also called EZH2 SANT1; source: E. coli Rosetta2 (DE3) pLysS, purified (glutathione agarose, PreScission cleavage, ion exchange, size exclusion); not shown: GST, N-terminal, …
In words: pull-down; 1 μg purified untagged SRM-SANT1 with 1 μg biotin-tagged H4 peptide overnight at 4 °C in 150 mM NaCl, 50 mM Tris (pH 6.5), 3 mM DTT; captured on streptavidin sepharose, four washes, coomassie staining; triplicates quantified with ImageJ. The settings on record: both partners purified.

Assay [2] concerns the target T1, EZH2 SRM-SANT1 (residues 141–251). The experiment in a line: NMR titration; 15N-HSQC spectra of 0.05–0.10 mM 15N-EZH2 SRM-SANT1 with increasing concentrations of histone peptide; 25 °C; Kd from normalized CSPs, one-site model accounting for ligand depletion, averaged over significantly perturbed residues. The following applies: both partners purified.

T1 sequence (Q15910 141-251): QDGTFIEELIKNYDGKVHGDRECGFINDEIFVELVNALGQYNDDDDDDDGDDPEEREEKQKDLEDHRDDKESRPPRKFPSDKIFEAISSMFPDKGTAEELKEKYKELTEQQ

B1: biotinylated unmodified histone H4 peptide (residues 11–27) (peptide, UniProt P62805 12-28, looked up)
peptide: GKGGAKRHRKVLRDNIQ
modifications: biotin (end not stated)
notes: histone H4, residues 11-27; also called unmodified H4 (11–27); source: synthetic peptide, bought: EpiCypher (SKU:12-0035)
With B1, the binding result in assay [1] is reported as “binds”.

B2: unmodified histone H4 peptide (residues 11–21) (peptide, UniProt P62805 12-22, looked up)
peptide: GKGGAKRHRKV
notes: histone H4, residues 11-21 (holds the basic patch); also called H4(11–21); source: synthetic peptide, custom synthesized by GenScript
Regarding B2, binding in assay [2] was characterised by a dissociation constant (Kd) of 700 ± 200 µM.

B3: unmodified histone H2B peptide (residues 1–11) (peptide, UniProt P62807 2-12, looked up)
peptide: PEPAKSAPAPK
notes: histone H2B N-terminal tail, residues 1-11; also called H2B (1–11); H2B tail; source: synthetic peptide, bought: AnaSpec (65442-1)
For B3, the “fold weaker than the H4 tail” value in assay [2] was around 20 fold.
